We go through three molecules from paper PMC2116304 (The Journal of Cell Biology, 1990).

Where “and” joins values, the source holds several entries; their conditions need not be identical. Equal entries are not always repeated.

Series [1] addresses K3 proteolytic fragment of the invariant chain (18,000 D, lumenal) (human). In words: cross-linking.
Series [2] concerns the molecule itself. The experiment in a line: SEC. On the technique in general: SEC sorts molecules by how far they enter the pores of the column.
Series [3] concerns the molecule itself. In words: cross-linking.
Series [4] concerns the molecule itself. The experiment in a line: non-reducing SDS-PAGE without cross-linker.

The stoichiometry N is a count of units in the complex or per binding partner. In series [1], “K3 proteolytic fragment of the invariant chain (18,000 D, lumenal) (domain or fragment)” displayed a stoichiometry N of 3.

B1: excess (class II-unassociated) invariant chain from Swei B-LCL (natural protein, human, UniProt P04233-2 1-232, looked up)
chain: MHRRRSRSCREDQKPVMDDQRDLISNNEQLPMLGRRPGAPESKCSRGALYTGFSILVTLLLAGQATTAYFLYQQQGRLDKLTVTSQNLQLENLRMKLPKPPKPVSKMRMATPLLMQALPMGALPQGPMQNATKYGNMTEDHVMHLLQNADPLKVYPPLKGSFPENLRHLKNTMETIDWKVFESWMHHWLLFEMSRHSLEQKPTDAPPKESLELEDPSSGLGVTKQDLGPVPM
modifications: [35S]methionine-labelled; N-linked glycans, endo H-sensitive
Consider B1, for which the “stoichiometry N” value in series [2] turned out to be 3.

B2: invariant chain (from the class II-negative hybrid cell line 174xCEM.T2) (natural protein, human, UniProt P04233-2 1-232, looked up)
chain: MHRRRSRSCREDQKPVMDDQRDLISNNEQLPMLGRRPGAPESKCSRGALYTGFSILVTLLLAGQATTAYFLYQQQGRLDKLTVTSQNLQLENLRMKLPKPPKPVSKMRMATPLLMQALPMGALPQGPMQNATKYGNMTEDHVMHLLQNADPLKVYPPLKGSFPENLRHLKNTMETIDWKVFESWMHHWLLFEMSRHSLEQKPTDAPPKESLELEDPSSGLGVTKQDLGPVPM
modifications: N-linked glycans, endo H-sensitive; [35S]methionine-labelled in the affinity-purified samples
Regarding B2, the “stoichiometry N” value in series [3] was 3 and 4 and 6; in series [4], 2.
